Assays:
Test in all cases: crystal structure
[1] = target: JCPyV Mad-1 VP1 pentamer (wild type, amino acids 22 to 289) (JC polyomavirus (JCPyV), strain Mad-1)
[2] = target: JCPyV Mad-1 VP1 pentamer L54F (amino acids 22 to 289) (JC polyomavirus (JCPyV), strain Mad-1)
[3] = target: JCPyV Mad-1 VP1 pentamer S268F (amino acids 22 to 289) (JC polyomavirus (JCPyV), strain Mad-1)
[4] = target: JCPyV Mad-1 VP1 pentamer S268Y (amino acids 22 to 289) (JC polyomavirus (JCPyV), strain Mad-1)

For “JCPyV Mad-1 VP1 pentamer (wild type, amino acids 22 to 289) (domain or fragment)”, which stoichiometry N [1] is on record?
The stoichiometry N was 5.

Which stoichiometry N [2] does the source give for “JCPyV Mad-1 VP1 pentamer L54F (amino acids 22 to 289) (domain or fragment)” here?
The stoichiometry N was 5.

“JCPyV Mad-1 VP1 pentamer S268F (amino acids 22 to 289) (domain or fragment)” was tested. Which stoichiometry N [3] did it give?
Its stoichiometry N is 5.

Which stoichiometry N [4] does the source give for “JCPyV Mad-1 VP1 pentamer S268Y (amino acids 22 to 289) (domain or fragment)” here?
Its stoichiometry N is 5.

From paper PMC3685208
